The results in this text go back to publication PMC10213783, “Crystal structures of glycoprotein D of equine alphaherpesviruses reveal potential binding sites to the entry receptor MHC-I” (Frontiers in Microbiology, 2023).

The target in this experiment is T1, Recombinant equine MHC-I 3.1 (Eqca-1*00101) with the peptide SDYVKVSNI linked to β2-microglobulin (equine (horse) | horse | ).
T1 chain 1: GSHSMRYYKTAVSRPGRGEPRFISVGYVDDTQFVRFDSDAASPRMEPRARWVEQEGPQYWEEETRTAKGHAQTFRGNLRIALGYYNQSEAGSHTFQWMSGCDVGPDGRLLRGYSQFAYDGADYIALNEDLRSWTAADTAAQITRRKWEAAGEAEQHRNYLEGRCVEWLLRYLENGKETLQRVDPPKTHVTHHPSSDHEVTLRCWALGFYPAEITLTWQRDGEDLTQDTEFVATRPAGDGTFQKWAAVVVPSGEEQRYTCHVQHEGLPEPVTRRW
T1 chain 2: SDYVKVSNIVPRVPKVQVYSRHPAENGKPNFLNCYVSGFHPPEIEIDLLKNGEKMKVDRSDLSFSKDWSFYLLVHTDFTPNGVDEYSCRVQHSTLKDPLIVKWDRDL
As to the kind of experiment: SPR; recombinant equine MHC-I 3.1 amine-coupled to a polycarboxylate hydrogel chip HC200M; gDs injected in serial dilutions from 0 to about 10 uM, 15 min; 25°C; Biacore J; equilibrium response fitted to a 1:1 model; apparent constants. The note with it: both partners purified. (In SPR one partner is held on a chip, and binding of the other changes the refractive index at the surface.)

B1: Recombinant soluble glycoprotein D of equine herpesvirus type 1, gD1_(32-349) (domain or fragment)
chain: EKAKRAVRGRQDRPKEFPPPRYNYTILTRYNATALASPFINDQVKNVDLRIVTATRPCEMIALIAKTNIDSILKELAAAQKTYSARLTWFKIMPTCATPIHDVSYMKCNPKLSFAMCDERSDILWQASLITMAAETDDELGLVLAAPAHSASGLYRRVIEIDGRRIYTDFSVTIPSERCPIAFEQNFGNPDRCKTPEQYSRGEVFTRRFLGEFNFPQGEHMTWLKFWFVYDGGNLPVQFYEAQAFARPVPPDNHPGFDSVESEITQNKTDPKPGQADPKPNQPFKWPSIKHLAPRLDEVDEVIEPVTKPPKTSKSNSTF
modifications: N-linked glycosylation (GlcNAc) visible at N53 and N61
On to B1, for which the Kd amounted to 7 µM.

B2: C-terminally truncated EHV-4 glycoprotein D, gD4_(36-280) (domain or fragment)
chain: VVRGNQNQRPEFPPPRYNFTIVTTYNETSLPSPFINDQVKIVDVRTVAATRPCEMIALIAKTNVDSIIKELDAAHKTYSARLTWFKITPTCATPIHDVVYMKCNPKLLFGMCDERSNILWLNSLITTAAETDDELGLVLASPAHSYSGLYRRVIQIDGRRIYTDFSVTIPSSHCPLSFEQNFGNPDRCKTPEQYSRGEVYTSRFLSEFNYRQGVHLAWVKHWFVQDGGNLPVQFYEAQAFARPVP
modifications: Insect-cell N-glycosylation; disulfides C87/C209, C126/C223, C138/C147. Entity position = paper number -30. / Peptide is covalently linked to beta2m. The linker sequence is not printed (supplement) …
On to B2, for which the Kd is 6.7 ± 0.75 µM.

B3: Recombinant soluble glycoprotein D of equine herpesvirus type 4, gD4_(32-349) (domain or fragment)
chain: ENYRRVVRGNQNQRPEFPPPRYNFTIVTTYNETSLPSPFINDQVKIVDVRTVAATRPCEMIALIAKTNVDSIIKELDAAHKTYSARLTWFKITPTCATPIHDVVYMKCNPKLLFGMCDERSNILWLNSLITTAAETDDELGLVLASPAHSYSGLYRRVIQIDGRRIYTDFSVTIPSSHCPLSFEQNFGNPDRCKTPEQYSRGEVYTSRFLSEFNYRQGVHLAWVKHWFVQDGGNLPVQFYEAQAFARPVPPDNHPGFDSVESEITQNKTNPKQEQASPKPNPPFKWPSIKQLAPRIDEVDNAKEITTKKPPASNSNSTF
modifications: Insect-cell N-glycosylation; disulfides C87/C209, C126/C223, C138/C147. Entity position = paper number -30. The deposited construct starts at E31 although the text prints 32-349; TEV-His6 removed. / …
Turning to B3, the Kd is 5.8 ± 0.76 µM.
